Reference: the supplement of paper PMC10567573

B1: CAMK2A (parent)
chain: ILLVGYPPFWDEDQHRLYKQIKAG
B2: PPP2R2B (parent)
chain: RNTKRDVTLEASRENSKPRAILKP
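Also: lentivirally expressed fusions sorted by FACS into six bins by GFP to DsRed ratio, PSI derived from sequencing read proportions per bin multiplied by bin number.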

Variants of: B1
Experiment: protein stability index of a GFP-peptide fusion (GPS, HEK-293T) (PSI 1-6); higher = more stable
Settings: c terminus: a fixed tail appended
Variant ILLVGYPPFWDEDQHRLYKQIKAD [G24D] has a protein stability index of 1.87.
For ILLVGYPPFWDEDQHRLYKQIKAH [G24H], the protein stability index was 2.08.
Work on ILLVGYPPFWDEDQHRLYKQIKAQ [G24Q] yielded a protein stability index of 3.66.
Work on ILLVGYPPFWDEDQHRLYKQIKAT [G24T] yielded a protein stability index of 2.58.
For ILLVGYPPFWDEDQHRLYKQIKAY [G24Y], the protein stability index was 2.39.
In the case of ILLVGYPPFWDEDQHRLYKQIKAR [G24R], the protein stability index is reported as 2.4.
Variant ILLVGYPPFWDEDQHRLYKQIKAV [G24V] has a protein stability index of 2.81.
Variant ILLVGYPPFWDEDQHRLYKQIKAP [G24P] has a protein stability index of 1.65.
Variant ILLVGYPPFWDEDQHRLYKQIKAN [G24N] has a protein stability index of 3.14.
ILLVGYPPFWDEDQHRLYKQIKAA [G24A] showed a protein stability index of 2.05.
Variant ILLVGYPPFWDEDQHRLYKQIKAF [G24F] has a protein stability index of 1.51.
Variant ILLVGYPPFWDEDQHRLYKQIKAK [G24K] has a protein stability index of 1.7.
Work on ILLVGYPPFWDEDQHRLYKQIKAS [G24S] yielded a protein stability index of 2.52.
ILLVGYPPFWDEDQHRLYKQIKAL [G24L] showed a protein stability index of 1.8.
Variant ILLVGYPPFWDEDQHRLYKQIKAM [G24M] has a protein stability index of 1.58.
With ILLVGYPPFWDEDQHRLYKQIKAE [G24E] the protein stability index was 1.36.
Work on ILLVGYPPFWDEDQHRLYKQIKAC [G24C] yielded a protein stability index of 2.27.
Work on ILLVGYPPFWDEDQHRLYKQIKAI [G24I] yielded a protein stability index of 2.71.
ILLVGYPPFWDEDQHRLYKQIKAW [G24W] gave a protein stability index of 1.96.
With ILLVGYPPFWDEDQHRLYKLIKAG [Q20L] the protein stability index was 2.6.
In the case of ILLVGYPPFWDEDQHRLYKSIKAG [Q20S], the protein stability index is reported as 1.86.
With ILLVGYPPFWDEDQHRLYKHIKAG [Q20H] the protein stability index was 2.86.
ILLVGYPPFWDEDQHRLYKMIKAG [Q20M] gave a protein stability index of 2.36.
ILLVGYPPFWDEDQHRLYKVIKAG [Q20V] showed a protein stability index of 3.11.
Work on ILLVGYPPFWDEDQHRLYKRIKAG [Q20R] yielded a protein stability index of 2.
With ILLVGYPPFWDEDQHRLYKIIKAG [Q20I] the protein stability index was 1.96.
For ILLVGYPPFWDEDQHRLYKPIKAG [Q20P], the protein stability index was 1.39.
With ILLVGYPPFWDEDQHRLYKNIKAG [Q20N] the protein stability index was 1.83.
With ILLVGYPPFWDEDQHRLYKTIKAG [Q20T] the protein stability index was 1.62.
In the case of ILLVGYPPFWDEDQHRLYKKIKAG [Q20K], the protein stability index is reported as 1.56.
Variant ILLVGYPPFWDEDQHRLYKWIKAG [Q20W] has a protein stability index of 2.02.
Variant ILLVGYPPFWDEDQHRLYKQFKAG [I21F] has a protein stability index of 3.06.
ILLVGYPPFWDEDQHRLYKQLKAG [I21L] showed a protein stability index of 2.31.
Variant ILLVGYPPFWDEDQHRLYKQMKAG [I21M] has a protein stability index of 1.72.
ILLVGYPPFWDEDQHRLYKQKKAG [I21K] gave a protein stability index of 1.65.
ILLVGYPPFWDEDQHRLYKQGKAG [I21G] showed a protein stability index of 1.54.
ILLVGYPPFWDEDQHRLYKQCKAG [I21C] showed a protein stability index of 2.35.
For ILLVGYPPFWDEDQHRLYKQDKAG [I21D], the protein stability index was 1.99.
For ILLVGYPPFWDEDQHRLYKQVKAG [I21V], the protein stability index was 1.89.
ILLVGYPPFWDEDQHRLYKQHKAG [I21H] gave a protein stability index of 1.47.
In the case of ILLVGYPPFWDEDQHRLYKQPKAG [I21P], the protein stability index is reported as 1.42.
ILLVGYPPFWDEDQHRLYKQQKAG [I21Q] showed a protein stability index of 2.28.
With ILLVGYPPFWDEDQHRLYKQWKAG [I21W] the protein stability index was 2.4.
Work on ILLVGYPPFWDEDQHRLYKQAKAG [I21A] yielded a protein stability index of 1.79.
Work on ILLVGYPPFWDEDQHRLYKQTKAG [I21T] yielded a protein stability index of 1.73.
ILLVGYPPFWDEDQHRLYKQNKAG [I21N] showed a protein stability index of 2.19.
ILLVGYPPFWDEDQHRLYKQYKAG [I21Y] gave a protein stability index of 1.84.
Work on ILLVGYPPFWDEDQHRLYKQSKAG [I21S] yielded a protein stability index of 1.82.
With ILLVGYPPFWDEDQHRLYKQEKAG [I21E] the protein stability index was 1.92.
With ILLVGYPPFWDEDQHRLYKQRKAG [I21R] the protein stability index was 2.05.
ILLVGYPPFWDEDQHRLYKQIKWG [A23W] showed a protein stability index of 3.2.
In the case of ILLVGYPPFWDEDQHRLYKQIKYG [A23Y], the protein stability index is reported as 2.73.
Work on ILLVGYPPFWDEDQHRLYKQIKTG [A23T] yielded a protein stability index of 1.27.
With ILLVGYPPFWDEDQHRLYKQIKRG [A23R] the protein stability index was 2.21.
With ILLVGYPPFWDEDQHRLYKQIKIG [A23I] the protein stability index was 2.82.
Work on ILLVGYPPFWDEDQHRLYKQIKMG [A23M] yielded a protein stability index of 2.06.
In the case of ILLVGYPPFWDEDQHRLYKQIKVG [A23V], the protein stability index is reported as 1.98.
In the case of ILLVGYPPFWDEDQHRLYKQIKQG [A23Q], the protein stability index is reported as 2.82.
Variant ILLVGYPPFWDEDQHRLYKQIKGG [A23G] has a protein stability index of 1.72.
For ILLVGYPPFWDEDQHRLYKQIKPG [A23P], the protein stability index was 1.8.
With ILLVGYPPFWDEDQHRLYKQIKKG [A23K] the protein stability index was 2.1.
For ILLVGYPPFWDEDQHRLYKQIKHG [A23H], the protein stability index was 1.58.
With ILLVGYPPFWDEDQHRLYKQIKNG [A23N] the protein stability index was 2.67.
With ILLVGYPPFWDEDQHRLYKQIKSG [A23S] the protein stability index was 2.46.
ILLVGYPPFWDEDQHRLYKQIKDG [A23D] showed a protein stability index of 1.98.
ILLVGYPPFWDEDQHRLYKQIKEG [A23E] gave a protein stability index of 2.26.
Work on ILLVGYPPFWDEDQHRLYKQIKFG [A23F] yielded a protein stability index of 2.23.
In the case of ILLVGYPPFWDEDQHRLYKQIKLG [A23L], the protein stability index is reported as 2.11.
ILLVGYPPFWDEDQHRLYKQIEAG [K22E] gave a protein stability index of 1.96.
For ILLVGYPPFWDEDQHRLYKQIQAG [K22Q], the protein stability index was 3.46.
With ILLVGYPPFWDEDQHRLYKQIAAG [K22A] the protein stability index was 2.87.
ILLVGYPPFWDEDQHRLYKQIHAG [K22H] gave a protein stability index of 1.52.
ILLVGYPPFWDEDQHRLYKQICAG [K22C] gave a protein stability index of 2.31.
With ILLVGYPPFWDEDQHRLYKQIGAG [K22G] the protein stability index was 1.63.
With ILLVGYPPFWDEDQHRLYKQIRAG [K22R] the protein stability index was 1.91.
Work on ILLVGYPPFWDEDQHRLYKQIDAG [K22D] yielded a protein stability index of 1.97.
For ILLVGYPPFWDEDQHRLYKQIPAG [K22P], the protein stability index was 2.74.
Variant ILLVGYPPFWDEDQHRLYKQIIAG [K22I] has a protein stability index of 2.55.
For ILLVGYPPFWDEDQHRLYKQIYAG [K22Y], the protein stability index was 2.43.
Variant ILLVGYPPFWDEDQHRLYKQITAG [K22T] has a protein stability index of 2.52.
Variant ILLVGYPPFWDEDQHRLYKQIVAG [K22V] has a protein stability index of 2.15.
In the case of ILLVGYPPFWDEDQHRLYKQIFAG [K22F], the protein stability index is reported as 2.94.
Work on ILLVGYPPFWDEDQHRLYKQIMAG [K22M] yielded a protein stability index of 2.6.
In the case of ILLVGYPPFWDEDQHRLYKQIWAG [K22W], the protein stability index is reported as 2.2.
ILLVGYPPFWDEDQHRLYKQISAG [K22S] gave a protein stability index of 3.22.
ILLVGYPPFWDEDQHRLYKQINAG [K22N] showed a protein stability index of 2.6.

Variants of: B2
Experiment: as above
Settings: c terminus: a fixed tail appended
RNTKRDVTLEASRENLKPRAILKP [S16L] gave a protein stability index of 4.16.
RNTKRDVTLDASRENSKPRAILKP [E10D] gave a protein stability index of 4.64.
In the case of RNTKRDVTNEASRENSKPRAILKP [L9N], the protein stability index is reported as 4.22.
Work on RNTKRDVTLEASRENSKLRAILKP [P18L] yielded a protein stability index of 4.27.
In the case of RNTKRDVTLEASRENSKPRHILKP [A20H], the protein stability index is reported as 4.85.
Work on RNMKRDVTLEASRENSKPRAILKP [T3M] yielded a protein stability index of 4.35.
RNTSRDVTLEASRENSKPRAILKP [K4S] gave a protein stability index of 4.92.
Work on RNTKRDVTLEAPRENSKPRAILKP [S12P] yielded a protein stability index of 4.45.
